In patent US8105605B2, “Allergen formulation” (Allergy Therapeutics (UK) Ltd., priority 1997, dated 2012):

Tests used:
[1] = test system: allergen specific antibodies to ovalbumin (XOA): IgG1, IgG2a, IgG2b; test: ELISA of serum IgG1, IgG2a and IgG2b antibodies after subcutaneous immunisation and booster of mice; format: in vivo, BALB/c female mice; conditions: BALB/c mice, 0.2 mL s.c., boosted at day 21, bled 14 days after booster
Description: (§1) TH1 inducing activity in mice can be equated with the production of IgG2a and IgG2b antibodies and the TH2 inducing activity with the production of IgG 1 antibodies and IgE antibodies.
(§2) Groups of 8 BALB/c female mice, 6-8 weeks of age, were injected subcutaneously in the inguinal area with 0.2 mL of one of the following vaccines:
(§3) XOA+Tyrosine: The XOA tyrosine adsorbate prepared in Preparation 2 above was diluted with an equal volume of phosphate buffered saline within 30 min prior to injection.
XOA+Tyrosine+MPL: The XOA tyrosine adsorbate prepared in Preparation 2 above was diluted with an equal volume of MPL®-AF at 500 μg/mL in phosphate buffered saline within 30 min prior to injection.
XOA+MPL: XOA was dissolved in phosphate buffered saline at 200 μg/mL and diluted with an equal volume of MPL®-AF at 500 μg/mL in phosphate buffered saline within 30 min prior to injection.
XOA Alone: XOA was dissolved at 200 μg/mL in phosphate buffered saline and diluted with an equal volume of phosphate buffered saline.
Twenty-one days later the four groups of mice were boosted with 0.2 mL of freshly prepared vaccines. Fourteen days following the booster the mice were bled and the sera separated and stored at −70° C. until assay.
(§4) The sera were assayed by conventional ELISA technique using horseradish conjugated goat anti-mouse IgG1, IgG2a, and IgG2b antibodies purchased from Southern Biotechnology, Inc. (Birmingham, Ala.) and used according to the manufacturer's instruction. The IgG1, IgG2a, and IgG2b titers represent the reciprocal serum dilution giving a reading of >0.1 OD units at A490. The serum IgE levels were measured using an anti-IgE capture ELISA followed by the use of a biotinylated ovalbumin probe. Binding was measured following the addition of a horseradish conjugated strepavidin preparation.

[2] = test system: allergen specific IgE antibody (ovalbumin); test: anti-IgE capture ELISA with biotinylated ovalbumin probe on serum of immunised mice; format: in vivo, BALB/c female mice; conditions: BALB/c mice, 0.2 mL s.c., boosted at day 21, bled 14 days after booster; serum at 1/10 dilution
Description: as §1, §2, §3
XOA+Tyrosine+MPL: The XOA tyrosine adsorbate prepared in Preparation 2 above was diluted with an equal volume of MPL®-AF at 500 μg/mL in phosphate buffered saline within 30 min prior to injection. […]
as §4

B1: ovalbumin (protein, UniProt P01012 2-386, looked up)
Ovalbumin: GSIGAASMEFCFDVFKELKVHHANENIFYCPIAIMSALAMVYLGAKDSTRTQINKVVRFDKLPGFGDSIEAQCGTSVNVHSSLRDILNQITKPNDVYSFSLASRLYAEERYPILPEYLQCVKELYRGGLEPINFQTAADQARELINSWVESQTNGIIRNVLQPSSVDSQTAMVLVNAIVFKGLWEKAFKDEDTQAMPFRVTEQESKPVQMMYQIGLFRVASMASEKMKILELPFASGTMSMLVLLPDEVSGLEQLESIINFEKLTEWTSSNVMEERKIKVYLPRMKMEEKYNLTSVLMAMGITDVFSSSANLSGISSAESLKISQAVHAAHAEINEAGREVVGSAEAGVDAASVSEEFRADHPFLFCIKHIATNAVLFFGRCVSP
notes: ovalbumin (XOA), a food allergen from chicken eggs, 200 μg/mL in phosphate buffered saline diluted with an equal volume of PBS
- IgG1 titer (reciprocal serum dilution giving a reading of >0.1 OD units at A490) [1]: 6400
- IgG2a Titer (reciprocal serum dilution giving a reading of >0.1 OD units at A490) [1]: <100
- IgG2b Titer (reciprocal serum dilution giving a reading of >0.1 OD units at A490) [1]: <100
- IgE OD at 1/10 Dilution [2]: 0.235 OD units at A490
